Positions count from the first letter of the chain named.
B1: SCT-Fa136 (antibody, V domains shown)
VH: QVQLQQPGAELVRPGTSVKLSCKASGYTFINYWMHWVKQRPGQGLEWIGVIDPSHTSTSYNQKFKGKATLTVDTSSTTTSMQLTSLTSEDSAVYYCARNDYDGGYFDYWGQGTTLTVSS
VL: DVVMTQIPLSLPVSLGDQASISCRSSQSLVHSNGNTYLHWYLQKPGQSPKLLIYTVSNRFSGVPDRFSGSGSGTDFTLKISRLEAEDLGVYFCSQTTHVPWTFGGGTKLEIK
notes: murine IgG
B2: SCT-Fa143 (antibody, V domains shown)
VH: QVQLQQPGAELVRSGTSVKLSCKASGYTFISYWMHWVKQRPGQGLEWIGVIDPSDTNTNYNQKFRGKATLTVDTSSSTAYMQLSSLTSEDSAVYFCARNDYDGGYFDYWGQGTTLTVSS
VL: B1 VL with I7T, V13G, P45S, T55K, L83V, V90L
notes: murine IgG
B3: SCT-Fa138 (antibody, V domains shown)
VH: B1 VH with I30T, N31R, K38R, H55S, T56S, S59D, T77S, T79A, S80Y, T84S
VL: B1 VL with I7S, N35I, K50N, T55K, L83V
notes: murine IgG
B4: SCT-Fa141 (antibody, V domains shown)
VH: B2 VH with S14P, K19N, I30T, I48L, T56S, R65K, F95Y, A97S
VL: B1 VL with I7T, L83V, V90I, T96S
notes: murine IgG
B5: SCT-Fa113 (antibody, V domains shown)
VH: QVQLQQPGAEFVKPGASVKLSCEASGNTFTSYWIQWVKQRPGQGLEWIGEIDPSDSYIDYNQKFKDKATLTVDTSSSTAYMHLSSLTSEDSAVYYCAREGAYSSPFAYWGQGTLVTVSA
VL: DILMTQSPSSMSVSLGDTISIICHASQDIRSNIGWLQQKPGKSFKGLIYHGSNLEDGVPSRFSGSGSGADYSLTISSLESEDFADYYCVQYIQFPRTFGGGTKVEIK
notes: murine IgG
B6: SCT-Fa082 (antibody, V domains shown)
VH: QGQLQQPGAEVVKPGAAVKLSCKASGYTFTSYWMQWIKQRPGQGLEWIGEIDPSDNYTDYNQNFKGKATLTVDTSSSTAYLQLSSLTSEDSAVYYCAREGAFSSPFAYWGPGTLVTVSS
VL: B5 VL with I19V, S52T, I92V, V104L
notes: murine IgG
B7: SCT-Fa194 (antibody, V domains shown)
VH: QVQLRQSGAELVRPGTSVKLSCKASGYTLTDYYINWVKQRPGQGLEWIARIYPGNGNTYYNEKFKGKATLTAEKSSSTVNMQVSSLTSEDSAVYFCARGGSSDRIYYYAMDYWGQGTSVTVSS
VL: DIQMNQSPSSLSASLGDTITITCHASQNINVWLSWYQQKPGNILKLLIYKASNLHTGVPSRFSGSGSGTGFTLTISSLQPEDIATYYCQQGQSYPLTFGSGTKLEIK
notes: murine IgG
B8: SCT-Fa111 (antibody, V domains shown)
VH: QVQLKQSGPGLVQPSQSLSITCTVSGFSLISYGVHWVRQSPGKGLEWLGIIWSGGNTDYNAAFISRLSISKDNSKSQVFFKLNSLQADDTAIYYCARTANALDYWGQGTSVTVSS
VL: DVLMTQTPLSLPVSLGDQASISCRSSQTIVHSNGNTYLEWYLQKPGQSPKLLIYKVSNRFSGVPDRFSGSGSGTDFTLKISRVEAEDLGVYYCFQGSHVPWTFGGGTKLEIK
notes: murine IgG
B9: SCT-Fa120 (antibody, V domains shown)
VH: QVQLQQPGAELVKPGASVKVSCKASGYSFISYWMYWVKQRPGQGLEWIGRIHPSDSDTNYNQKYKGKATLTVDRSSSTAYMQLSSLTSEDSAVYYCTISHYSGSSPETYWGQGTTLTVSS
VL: B8 VL with T28S, W101Y
notes: murine IgG
B10: SCT-Fa121 (antibody, V domains shown)
VH: QVQLQQPGAELVKPGASVKVSCKASGYTFISHWMYWVRQRPGQGLEWIGRIHPSDSDTDYSQEFKGKATLTVDKSSSTAHMQLSSLTSEDSAVYYCAIWSYYYGSRLDYWGQGTTLTVSS
VL: B8 VL with T7A, L9P, T28N, K44R, F94C, W101Y
notes: murine IgG
B11: SCT-Fa142 (antibody, V domains shown)
VH: QVQLQQPGAELVRPGTSVRLSCKASGYSFTIYWMHWVKQRPGQGLEWIGVIDPSTSNTDYNQKFKGKATLTVDTSSSTAYMQLRSLSSEDSAVYYCARNDYDGGYFDYWGQGTTLTVSS
VL: B1 VL with I7T, S28R, P45T, T55K, L83V, T96S
notes: murine IgG
B12: SCT-Fa116 (antibody, V domains shown)
VH: QVQLQQPGAELVKPGASVKLSCKASGYSFISSWMEWVKQRPGQGLEWIGRIHPSDSDTNYNQKFKAKATLTVDKSSSTAYMQLSSLTSEDSAVYYCAIIHRGFYFAMDYWGQGTSVTVSS
VL: B8 VL with T28S
notes: murine IgG
B13: SCT-Fa150 (antibody, V domains shown)
VH: B10 VH with L11V, T28S, S105T
VL: B8 VL with L9P, T28N, K44R, F94C, W101Y
notes: murine IgG
B14: SCT-Fa119 (antibody, V domains shown)
VH: B12 VH with L20V, A66G
VL: B8 VL with T28S
notes: murine IgG
B15: SCT-Fa127 (antibody, V domains shown)
VH: QVQLQQPGAELVMPGASVKLSCKASGYTFTTYWMHWVKQRPGQGLEWIGEIDPSDGYSNYNQNFKGKATLTVDKSSSTAYLQLSSLTSEDSAVYYCARNYGSNYVGYFDYWGQGTTLTVSS
VL: DIQMTQTTSSLSASLGDRVTISCRSSQDISNYLNWYQQKPDGTVKLLIYYTSRLHSGVPSSFSGSGSGTDYSLTISNLEQEDIATYFCQQANALPWTFGGGTKLEIK
notes: murine IgG
B16: SCT-Fa144 (antibody, V domains shown)
VH: B15 VH with M13T, G56S, S58R, N63K, L81M, T116A
VL: B15 VL with S25A, S30T, K39R, S61R, E79A, E81G, N92S, A93T, E105D
notes: murine IgG
B17: SCT-Fa133 (antibody, V domains shown)
VH: B15 VH with P14S, K38R, G56S, Y60N, G66A, L81M, S84G
VL: B15 VL with T7S, S25A, S30T, Y50H, S56A, S61R, E79D, A91G
notes: murine IgG
B18: SCT-Fa132 (antibody, V domains shown)
VH: B15 VH with G15R, T31S, S58T, Q62H, N63K, L81M
VL: B15 VL with S25A, P40R, L54F, S61R, A91G, A93T
notes: murine IgG
B19: SCT-Fa123 (antibody, V domains shown)
VH: B15 VH with T30N, G56S, S58T, K65N
VL: B15 VL with S25A, H55P, N92K
notes: murine IgG
B20: SCT-Fa122 (antibody, V domains shown)
VH: B15 VH with K23E, Y32F, M34I, G56S, S58T
VL: B15 VL with S25A, T85I
notes: murine IgG
B21: SCT-Fa129 (antibody, V domains shown)
VH: B15 VH with G56S, S58T, N63K, L81M
VL: B15 VL with M4L, S22N, S25A, H55L, N77S, A91G, N92K
notes: murine IgG
B22: SCT-Fa190 (antibody, V domains shown)
VH: B15 VH with Q5R, T30N, G56S, S58T
VL: B15 VL with S25A, H55P, N92K
notes: murine IgG
B23: SCT-Fa131 (antibody, V domains shown)
VH: B15 VH with K19R, A24T, T30S, G56S, S58T, L81M, Q82K
VL: B15 VL with T8A, S25A, S30N, A91G, G99S
notes: murine IgG
B24: SCT-Fa128 (antibody, V domains shown)
VH: B15 VH with G56S, N63K, L81M
VL: B15 VL with M4L, S22N, S25A, H55L, N77S, A91G, N92K
notes: murine IgG
B25: SCT-Fa124 (antibody, V domains shown)
VH: B15 VH with T30S, G56S, S58T, L81M, Y110H, Q113R
VL: B15 VL with S25A, E79A, A91G
notes: murine IgG
B26: SCT-Fa130 (antibody, V domains shown)
VH: B15 VH with K19R, K38R, G56S, S58T, Y110H
VL: B15 VL with S25A
notes: murine IgG
B27: SCT-Fa126 (antibody, V domains shown)
VH: B15 VH with T31S, G56S, N63K, L81M, S84I
VL: B15 VL with S25A, H55L, S61R, A91G, A93T, K103N
notes: murine IgG
B28: SCT-Fa125 (antibody, V domains shown)
VH: B15 VH with T31S, G56N, S58T, N63K, K74G, L81M
VL: B15 VL with S25A, D28G, L54F, S61R, A91G, A93S
notes: murine IgG
B29: SCT-Fa134 (antibody, V domains shown)
VH: QVQLQQPGAELVRPGSSVKLSCKASGYNFTNYWIDWVKQRPGQGLAWIGDIYPSDNKTHYNQNFKGKATLTVDKSSNTAYMQLSSLTSEDSAVYYCAASMDYWGQGTSVTVSS
VL: DIVMTQSPSSLTVTAGEKVTMSCKSSQSLLNSKNQKNFLTWYQQKPGQPPKLLIYWASTRESGVPDRFTGSASGTDFTLTISSVQAEDLAVYYCQNDYSYPYTFGGGTKLEIK
notes: murine IgG
B30: SCT-Fa135 (antibody, V domains shown)
VH: B29 VH with N31S, A46E, N56S, S85N, A98T
VL: B29 VL with S99D
notes: murine IgG
B31: SCT-Fa118 (antibody, V domains shown)
VH: QVQLQQPGAELVKPGASVKLSCKASGYTFISYWMHWVKQRPGRGLEWIGRIDPNSGDTKYNEKFKSKATLTVDKPSSTAYMQLSSLISEDSAVYYCARWGWDAFAYWGQGTLVTVSA
VL: DAVMTQTPLSLPVSLGDQASISCRSSQSLENSDGNTYLNWYFQKTGQSPQLLIYRVSNRFSGVLDRFSGSGSGTDFTLKISRVEAEDLGVYFCLQVTHVPPTFGAGTKLELK
notes: murine IgG

molecular target: T1, Human TIM-3 Human Fc tagged protein (human, fluorescently labeled with HiLyte Fluor 555 (sites not given)); assay: capture slide probed with labeled TIM-3-Fc;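 also: IgG from single CD138-enriched plasma cells, isolated from lymphocytes, immobilized on a derivatized glass slide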
T1 construct: Bought construct; also called TIM-3 protein tagged with human Fc; ACROBiosystems catalog no: TM3-H5258

Binding result, binds:
B1, B2, B3, B4, B5, B6, B7, B8, B9, B10, B11, B12, B13, B14, B15, B16, B17, B18, B19, B20, B21, B22, B23, B24, B25, B26, B27, B28, B29, B30, B31

— US20230279105A1 (SINGLE CELL TECHNOLOGY, published 2023)
